In general, Km refers to the substrate concentration at which the rate is half of its maximum. As a reminder, the stoichiometry N is the number of molecules, sites or subunits per partner or assembly. In general, kcat refers to the maximal rate divided by the concentration of active sites. By kcat/Km is commonly meant the turnover number divided by the Michaelis constant.

The target of one data set is T1, FoxLOX (Fusarium oxysporum, UniProt A0A0J9UTC2).
T1 construct: gene FOXG_04807; full-length ORF, 744 residues, in pET28a with N-terminal hexa-His tag (removal not mentioned); E. coli Bl21star; non-heme iron; iron-ligand residues His-408, His-413, His-595, Asp-599, Ile-744
T1 sequence (A0A0J9UTC2 1-744): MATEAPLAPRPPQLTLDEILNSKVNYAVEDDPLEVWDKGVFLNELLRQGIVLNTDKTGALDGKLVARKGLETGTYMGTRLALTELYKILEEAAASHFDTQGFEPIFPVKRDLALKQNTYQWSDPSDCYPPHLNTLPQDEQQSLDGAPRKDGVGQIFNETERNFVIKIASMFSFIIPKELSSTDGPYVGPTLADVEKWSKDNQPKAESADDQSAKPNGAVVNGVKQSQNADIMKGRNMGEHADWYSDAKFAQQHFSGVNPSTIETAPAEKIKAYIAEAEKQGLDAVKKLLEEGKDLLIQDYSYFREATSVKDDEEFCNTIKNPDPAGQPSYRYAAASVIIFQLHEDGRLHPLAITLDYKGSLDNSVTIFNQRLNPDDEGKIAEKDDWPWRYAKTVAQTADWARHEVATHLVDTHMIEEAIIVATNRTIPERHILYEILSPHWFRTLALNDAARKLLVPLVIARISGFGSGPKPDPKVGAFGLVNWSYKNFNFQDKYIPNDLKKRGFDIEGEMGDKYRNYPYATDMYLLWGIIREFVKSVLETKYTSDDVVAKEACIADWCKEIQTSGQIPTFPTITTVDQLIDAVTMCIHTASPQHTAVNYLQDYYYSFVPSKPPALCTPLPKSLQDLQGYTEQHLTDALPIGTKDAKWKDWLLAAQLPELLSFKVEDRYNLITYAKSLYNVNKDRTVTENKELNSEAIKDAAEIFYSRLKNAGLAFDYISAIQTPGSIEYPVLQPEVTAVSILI
The data set can be described thus: initial rate of conjugated diene formation at […] nm, Michaelis-Menten fit. Format: biochemical. The following applies: 50 mM Tris/HCl pH 8.0, room temperature, air-equilibrated, fatty acid sodium salt.

In data set [1] the target is FoxLOX (Fusarium oxysporum lipoxygenase, iron 13S-lipoxygenase) (Fusarium oxysporum f. sp. lycopersici strain 4287). The data set can be described thus: SEC; S200pg 26/60 column; 50 mM Tris/HCl pH 8.0, 10% glycerol, 125 mM NaCl; affinity-purified FoxLOX; apparent mass about 173 kDa against about 80 kDa by SDS-PAGE and 83.5 kDa theoretical.
Substrate in the data set “purified protein”: CCCCC/C=C\C/C=C\C/C=C\C/C=C\CCCC(=O)O
The data set can be described thus: purified protein. Format: biochemical, Fusarium oxysporum. The following applies: 50 mM Tris/HCl pH 8.0, room temperature, air-equilibrated, fatty acid sodium salt.

Turning to `CCCCC/C=C\C/C=C\CCCCCCCC(=O)O` [18∶2(n-6)], the Km on FoxLOX was determined as 6.89 ± 0.79 µM.

In the case of `CC/C=C\C/C=C\C/C=C\CCCCCCCC(=O)O` [18∶3(n-3)], on FoxLOX, the Michaelis-Menten constant (Km) was found to be 31.7 ± 3.79 µM.

With `CCCCC/C=C\C/C=C\C/C=C\CCCCC(=O)O` [18∶3(n-6)], on FoxLOX, the Km turned out to be 34.8 ± 5.38 µM.

For the molecule “FoxLOX (Fusarium oxysporum lipoxygenase, iron 13S-lipoxygenase) (enzyme)”, in data set [1], the stoichiometry N is 2.

B1: FoxLOX (Fusarium oxysporum f. sp. lycopersici 4287) (protein)
chain: MATEAPLAPRPPQLTLDEILNSKVNYAVEDDPLEVWDKGVFLNELLRQGIVLNTDKTGALDGKLVARKGLETGTYMGTRLALTELYKILEEAAASHFDTQGFEPIFPVKRDLALKQNTYQWSDPSDCYPPHLNTLPQDEQQSLDGAPRKDGVGQIFNETERNFVIKIASMFSFIIPKELSSTDGPYVGPTLADVEKWSKDNQPKAESADDQSAKPNGAVVNGVKQSQNADIMKGRNMGEHADWYSDAKFAQQHFSGVNPSTIETAPAEKIKAYIAEAEKQGLDAVKKLLEEGKDLLIQDYSYFREATSVKDDEEFCNTIKNPDPAGQPSYRYAAASVIIFQLHEDGRLHPLAITLDYKGSLDNSVTIFNQRLNPDDEGKIAEKDDWPWRYAKTVAQTADWARHEVATHLVDTHMIEEAIIVATNRTIPERHILYEILSPHWFRTLALNDAARKLLVPLVIARISGFGSGPKPDPKVGAFGLVNWSYKNFNFQDKYIPNDLKKRGFDIEGEMGDKYRNYPYATDMYLLWGIIREFVKSVLETKYTSDDVVAKEACIADWCKEIQTSGQIPTFPTITTVDQLIDAVTMCIHTASPQHTAVNYLQDYYYSFVPSKPPALCTPLPKSLQDLQGYTEQHLTDALPIGTKDAKWKDWLLAAQLPELLSFKVEDRYNLITYAKSLYNVNKDRTVTENKELNSEAIKDAAEIFYSRLKNAGLAFDYISAIQTPGSIEYPVLQPEVTAVSILI
notes: full-length ORF, 744 residues, in pET28a with N-terminal hexa-His tag (removal not mentioned); E. coli Bl21star; non-heme iron; iron-ligand residues His-408, His-413, His-595, Asp-599, Ile-744
Regarding B1, in “purified protein”, the Km was 3.37 ± 0.55 µM, the turnover number (kcat) was 1.71 ± 0.0632 s⁻¹ and the specificity constant (kcat/Km) turned out to be 507000 M⁻¹ s⁻¹.

These data come from PMC3669278, “An Iron 13S-Lipoxygenase with an α-Linolenic Acid Specific Hydroperoxidase Activity from Fusarium oxysporum” (PLoS ONE, 2013).
